According to patent US20150166647A1 (VLST, published 2015):

Tests used:
Experiment in all cases: MSD electrochemiluminescence assay; chemokine coated at 1 µg/mL, 18V4F at 3 µg/mL; background = BSA
IL-8 = biological target: T1, IL-8
T1 construct: also called IL-8/CXCL8; CXCL8

SDF = biological target: T2, SDF
T2 construct: also called SDF-1/CXCL12; CXCL12

CTACK = biological target: T3, CTACK
T3 construct: also called CTACK/CCL27; CCL27
T3 chemokine: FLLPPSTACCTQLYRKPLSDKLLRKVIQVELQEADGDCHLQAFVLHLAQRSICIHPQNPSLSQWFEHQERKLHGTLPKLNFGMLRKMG

Groα = biological target: T4, Groα
T4 construct: also called Gro-α/CXCL1; CXCL1

Groβ = biological target: T5, Groβ
T5 construct: also called Gro-β/CXCL2; CXCL2

Groγ = biological target: T6, Groγ
T6 construct: also called Gro-γ/CXCL3; CXCL3

GCP2 = biological target: T7, GCP2
T7 construct: also called GCP-2/CXCL6; CXCL6

NAP-2 = biological target: T8, NAP-2
T8 construct: also called NAP-2/CXCL7; CXCL7
T8 chemokine: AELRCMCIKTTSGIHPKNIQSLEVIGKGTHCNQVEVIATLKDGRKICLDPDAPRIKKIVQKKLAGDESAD

PF4 = biological target: T9, PF4
T9 construct: also called PF4/CXCL4; CXCL4
T9 chemokine: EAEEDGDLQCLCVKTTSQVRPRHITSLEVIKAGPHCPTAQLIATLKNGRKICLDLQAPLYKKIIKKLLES

I-TAC = biological target: T10, I-TAC
T10 construct: also called I-TAC/CXCL11; CXCL11
T10 chemokine: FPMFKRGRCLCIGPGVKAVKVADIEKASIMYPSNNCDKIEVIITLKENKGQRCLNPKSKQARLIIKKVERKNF

BCA1 = biological target: T11, BCA1
T11 construct: also called BCA-1/BLC/CXCL13; CXCL13
T11 chemokine: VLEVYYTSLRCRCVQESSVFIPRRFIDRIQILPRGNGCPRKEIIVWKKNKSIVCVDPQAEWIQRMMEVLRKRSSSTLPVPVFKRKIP

BRAK = biological target: T12, BRAK
T12 construct: also called BRAK/CXCL14; CXCL14
T12 chemokine: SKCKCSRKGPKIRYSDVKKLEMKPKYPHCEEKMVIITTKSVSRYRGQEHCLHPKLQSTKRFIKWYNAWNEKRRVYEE

XCL1 = biological target: T13, XCL1
T13 chemokine: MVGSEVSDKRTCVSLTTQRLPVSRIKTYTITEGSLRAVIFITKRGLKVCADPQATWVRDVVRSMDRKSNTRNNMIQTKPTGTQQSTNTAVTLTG

Measured: binding result

T7 sequence (chemokine, as listed by the source): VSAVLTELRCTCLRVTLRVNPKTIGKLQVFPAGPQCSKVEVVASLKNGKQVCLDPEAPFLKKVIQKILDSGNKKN
T6 sequence (chemokine, as listed by the source): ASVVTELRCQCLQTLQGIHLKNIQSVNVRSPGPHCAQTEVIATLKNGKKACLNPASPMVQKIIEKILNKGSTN
T4 sequence (chemokine, as listed by the source): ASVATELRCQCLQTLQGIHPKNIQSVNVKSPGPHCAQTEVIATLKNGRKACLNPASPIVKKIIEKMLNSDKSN
T2 sequence (chemokine, as listed by the source): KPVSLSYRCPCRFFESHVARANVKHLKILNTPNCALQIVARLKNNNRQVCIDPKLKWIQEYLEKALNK
T5 sequence (chemokine, as listed by the source): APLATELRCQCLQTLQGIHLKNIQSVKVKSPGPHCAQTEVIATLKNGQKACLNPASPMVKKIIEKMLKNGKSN
T1 sequence (chemokine, as listed by the source): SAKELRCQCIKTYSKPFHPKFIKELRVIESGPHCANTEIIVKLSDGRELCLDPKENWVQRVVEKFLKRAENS

B1: monoclonal antibody 18V4F (antibody, V domains shown)
VH: QVQLKESGPGLVAPSQSLSITCTVSGFSLTGYGIHWVRQPPGKGLEWLGVIWPGGGTNYNSALMSRLSISKDNSKSQVFLKMNSLQTDDTAMYYCARGPLITTEVSMDYWGQGTSVTVSS
VL: QAVVTQESALTTSPGETVTLTCRSNTGAVTTSNYANWVQEKPDHLFTGLIGGTNNRAPGVPARFSGSLIGDKAALTITGAQTEDEAIYFCALWYSNHWVFGGGTKLTVLG
notes: also called MAb 18V4F
no binding (tested: 3 µg/mL): all assays above
